This note sets out measurements from article PMC2615623 (Nucleic Acids Research, 2008).

For assay [1], the target named is T1, His-tagged human RNASEH2B (human, UniProt Q5TBB1 1-312).
T1 sequence (looked up): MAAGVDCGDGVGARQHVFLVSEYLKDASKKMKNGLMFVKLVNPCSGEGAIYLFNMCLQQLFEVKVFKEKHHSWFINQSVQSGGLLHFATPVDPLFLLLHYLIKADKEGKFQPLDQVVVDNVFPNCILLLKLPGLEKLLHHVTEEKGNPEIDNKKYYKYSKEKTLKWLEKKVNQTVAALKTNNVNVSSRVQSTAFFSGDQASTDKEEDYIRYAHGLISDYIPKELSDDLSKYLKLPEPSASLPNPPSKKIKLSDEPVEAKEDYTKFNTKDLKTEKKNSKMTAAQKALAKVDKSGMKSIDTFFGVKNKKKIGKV
Kind of assay: SEC.

For assay [2], the target named is T2, His-tagged human RNASEH2C (human, UniProt Q8TDP1 1-164).
T2 sequence (looked up): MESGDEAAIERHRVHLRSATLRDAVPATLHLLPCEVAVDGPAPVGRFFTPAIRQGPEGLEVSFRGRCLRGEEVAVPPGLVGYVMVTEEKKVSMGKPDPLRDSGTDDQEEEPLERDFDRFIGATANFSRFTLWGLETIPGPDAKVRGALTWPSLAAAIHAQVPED
Kind of assay: SEC. In general terms: Size exclusion chromatography separates by hydrodynamic size, large species first.

B1: His-tagged human RNASEH2A (natural protein, UniProt O75792 1-299, looked up)
chain: MDLSELERDNTGRCRLSSPVPAVCRKEPCVLGVDEAGRGPVLGPMVYAICYCPLPRLADLEALKVADSKTLLESERERLFAKMEDTDFVGWALDVLSPNLISTSMLGRVKYNLNSLSHDTATGLIQYALDQGVNVTQVFVDTVGMPETYQARLQQSFPGIEVTVKAKADALYPVVSAASICAKVARDQAVKKWQFVEKLQDLDTDYGSGYPNDPKTKAWLKEHVEPVFGFPQFVRFSWRTAQTILEKEAEDVIWEDSASENQEGLRKITSYFLNEGSQARPRSSHRYFLERGLESATSL
As to B1, the “stoichiometry N” value in assay [1] and in assay [2] was 1 A:B:C in each case.
